# Measurements published in the nanobody polyreactivity screen of Harvey et al. (2022).
# Assay: yeast display, Sf9 membrane polyspecificity reagent, FACS + sequencing; frameworks hold sequencing errors
# In short: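 Genes from sorted yeast were amplified by colony PCR, read by MiSeq 2 × 250 sequencing and filtered on CDR length. These cells carried a synthetic nanobody library in Saccharomyces cerevisiae BJ5465 and were sorted by FACS into low and high (top ~1%) gates on anti-HA and streptavidin fluorescence. Polyreactivity is labelled according to the gate of origin.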
row,Sequence,polyreactivity (PSR sort gate)
1,QVQLVESGGGLVQAGGSLRLSCAASGRIFRWYTMGWYRQAPGKEREFVAAITWSDTSTSYADSVKGPFTISRDNAKNTVYLQMNSLKPEDTAVYYCAAPTHLHGHGNQNEFYYWGQGTQVTVSS,low polyreactivity
2,QVQLVESGGGLVQAGGSLRLSCAASGFTLWLNAMGWYRQAPGKERELVAAITTSDDGTYYADSVKGRFTISRDNAKKTVYLQMNSLKPEDTAVYYCAADYYSVLYDYWGQGTQVTVSS,low polyreactivity
3,QVQLVESGGGLVLAGGSLRLSCAASGFIFATYAMGWYRQAPGKERVLVAAISRRGVRTNYADSVKGRFTISRDNAKNTVYLQMNSLKPEDTAVYYSNAQSHYGKIPMYYWGQGTQVTVSS,high polyreactivity
4,QVQIVESGGGLVQAGGSLRLSCAASGSTFPWYVMGWYRQAPGKERELVAAISWSGGRTYYADSVKGRFTISRDNAKNTVYLQMTRLKPEDRAVYYCAAEFKLVSHTYYYWGQGTQVTVSS,low polyreactivity
5,QVQLVESGGGLVQAGGSLRLSCAASGSLFYYYPMGWYRQAPGKERELVATINISDRSTYYADSVKGRFTISRDYAKNTVYLQMNSLKPEDTAVYDCAAYYYFQDYDYWGQGTQVTVSS,low polyreactivity
6,QVQLQVSGGGLVQAGGSLRLNSAASGAIFLTSEMGWYRQAPGKERELVAAIATGTSTNYADSVKGLFTISRDNAKNTVYLQMNSLKPEDTAVYYCATYHYWGQGTQVTVSS,low polyreactivity
7,QVQLVESGGGLVQAGGSLRLSCAASGFTFIYYAMGWYRQAPGKERELVAAISTSGGRTYYADSVKGRFTISRDNAKNTVYLQMNCLKPEYTAVYYCAADGHYRYTSRYGLIVRYDYWGQGTQVTVSS,high polyreactivity
8,QVQLVESGGGLVQAGGSLRLSCAASGYTFTSNDMGWYRQAPGKERELVAAITWSGGTTYYADSVKGRFTISRDNAKNTVYLQMNSLKPEDTAVYYCAAESTLPIIDRDDYWGQGTQVTVSS,low polyreactivity
9,QVQLVESGGGLVQAGGSLRLSCAASGRIFGYYAMGWSRPAPGKERELVATITFGGVSTYYADSVKGRFTISRDNAKNNVYLQMNSLKPEDTGVYYCAADSGYLGIYGDEYSWGQGTQVTVSS,low polyreactivity
10,QVQLVESGGGLVQAGGSLRLSCAASGSISVHYAMGWYRQAPGKERELVAAISRRGGSTYYADSVKGRFTISRDNAMNTVYLQMNSLKPEDTAVYYCNASYYSVIQQTWYDYWGQVTQVTVSS,high polyreactivity
11,QVQLVESGGGLVQAGGSLRLSCAASVSTFFRNAMGWYRQAPGKERELVAAISKSGTSTYYADSVKGRFTISRDNAKNTVYLQMNSLKPEDTAVYYCAKYGFSYPQSYAYYYWGQGTQVTVSS,high polyreactivity
12,QVQLVESGGGLVQAGGSLLLSCPASGRIFTWYAMGWYRQAPGKERELVAAINYNGDDTYYADSVKGRFTISRDNAKNTVYLQMNSLKPEDTAVYYCAAEGSRPPYDYWGQGTQVTVSS,high polyreactivity
13,QVQHVESGGGLVQAGGSLRLSCAASGFIFWYYAMGLYRQAPGKERELVADISSGGSTNYADSVKGRFTISRDNAKNTVYLQMNSLKPDDTAVYYCAADTFRRDDYWGQGTQVTVSS,low polyreactivity
14,QVQLVESGGGLVQAGGSLRLSCDASGSIFPYYAMGWYRQAPGKERELVAAITSSDGITYYADSVKGRFTISRDNAKNTVYLQMNSLKPEDTAVYYCAAEVYVADWLTEFYYWGQGTQVTVSS,high polyreactivity
15,QVQLVESGGGLVQAVVSLRLSCAASGSIFGGYAMGWYRQAPGKERELVAAISYRGASTYYADSVKGRFTISRDNAKNTVYLQMNSLKPEDTAVYYCAVAARTRARVLYGYDYWGQGTQVTVSS,low polyreactivity
16,QVQLVESGGGLVQAGGSLRLSCAASGFTFERNAMGWYRQAPGKERELVATINGSSDSTYYSDSVKGRFTISRDNAKNTVYLQMNSLKPEDTAVYYCNADSITEGNSRYSHFDYWGQGTQVTVSS,low polyreactivity

row,Sequence,polyreactivity (PSR sort gate)
1,QVQLVESGGGLVQAGGSLRLSCAASGFIFSKYVMGWSRQAPGKERELVAAITRSGSSTYYADSVKGRFTISRDNAKNTVYLQMNSLKPEDTAVYYCAADGGYYDDDYWGQGTQVTVSS,high polyreactivity
2,QVQLVESGGGLVQAGGSLRLSCAASGRTFGYYAMGWYRQSPGKERELVAAITSGGRTYYADSVKGRFTISRDNAKNTVYLQMNSLKPEDTAVYYCNAPARWGSRVAWYEYWGQGTQVSVSS,high polyreactivity
3,QVQLVESGGGLVQAGGSLRLSCAASGFTFNYNARGWYSQAPGNDRELVAAIRRSGGSTYYADSGKGRFTISRDNAKNTVYLQMNSLKPEDTAVYYCAARQSFLYGYWGQGTQVTVSS,high polyreactivity
4,QVQLVESGGVLVQAGGSLRLSCAASGGIFNYYAMGWYRQAPGKERELVAAISASGGSTYYADSVKGRFTISRDNAKNTVYLQMNILKPEDTAVYYCAAGLPYGYGYDYWGQGTQVTVSS,low polyreactivity
5,QVQLGESGGGLVQAGGSLRLSCAASGRTFGLKAMGWYRQAPGKERELVAAINWRGTSTYYADSVKGRFTISRDNAKNTVYLQMNSLKPEDTAVYYCAARRSVGGYGYWGQGTQVTVSS,high polyreactivity
6,QVQLVESGGGLVQAGGSLRLSCAASGSIFGRYAMGWYRQAPGKERELVAAIDGGGSTNYADSVKGRFTISRDNAKNTVYVQMNSLKPEDTAVYYCATEAKAYRYYYRTRHYYYWGQGTQVTVSS,low polyreactivity
7,QVQLVESGGGLVQAGGSLRLSCPAYGSIFEGHGMGWYRQAPGKEREMVAAITFRSGSTYYADSVKWRFTISRDNAKNTVYLQINSLKPDDTAVYYCAADEYYQVSAYDYWGQGTQVTVSS,low polyreactivity
8,QVQLVESGGGLVQAGGSLRLSCAASGSTFYRNAMGWYRQAPGKERELVAAINSTDSTNYADSVKGLFTISRDNAKNTVYLQMNSLKPEDTAVYYCAAVGDNLATAEYDYWGQGTQVTLSS,low polyreactivity
9,QVQLVESGGGLVQAGGSLRLSCAASGRNFYFYAMGWYRQAPGKEREFVATISSTGGSTYYADSVKGRFTISRDNAKNTVYLQMNSLKPEDTAVYYCAVRGWYPGFRYDYWGQGTQVTVSS,low polyreactivity
10,QVQLVESGGGLVQAGGSLRLSCAASGSTFAKYVMGWYRQAPGKERELVAAISRRGSSTYYADSVKGRFTISRDNAKNTVYLQMNSLKPEDTAVYYCAARFRYSGFEGMDYWGQGTQVTVSS,high polyreactivity
11,QVQLVESGGGLVQAGGSLRLSCAASGFYYGIGWYRQAPGTERELVAVITRGGSTNYADSVKGRFTISRDNAKNTVYLQMISLKPEDTAVYYCAARLYWAYRYGSWGQGSQVTVSS,high polyreactivity
12,QVQLVESGGGLVQAGGSLRLSCAASGSIFASYAMGWYRQAPGKERELVAVITRSGGSTYYADSVKGRFTISRDNAKNTVYLQMNSLKPEDTAVYYCAAQYGRTYYSRREYWGQGTQVTVSS,high polyreactivity
13,QVQLVESGGGLVQAGGSLRLSSAASGRIFRGNVMGWYRQAPGKERELVAVIRSSSGRTYYADSVKGRFTISRDNAKNTVYLQMNSLKPEDTAVYDCAAKSVWGQGTQVTVSS,high polyreactivity
14,QVQLVESGGGLVQAGGSLRLSCAASGRIFWDNAMGWYRQAPGKERELVAAISGSGGNTYYADSVKGRFTISRDNAKNTVYLQMNSLKPEDTAVYYCNAYGHYTKRYRYGGWFDYWGQGTQVTVSS,low polyreactivity
15,QVQLVESGGGLVQAGVSLRLSWAASGRTGVNAMGWYRQAPGKERGLVAAINTSVGRTYYADSVKGRFTISRDNAKNPVYLQMNCLKPEDTAVYYCNTDRLGAARYDDWGQGTQVTVSS,low polyreactivity
16,QVQLVESGGGLVQAGGSLRLSCAASGRILNVYAMGWYRQAPGKERELVAAINYRGTNTYYADSVKGRFTISRDNAKNTVYLQMNSLKPEDTADYYCAARRHVYLRGSTFEFNYWGQGTHVTVSS,high polyreactivity
